The target of test [1] is T1, human MCAM domain 1 hFc construct (human, UniProt P43121 19-129).
T1 construct: One of the 'various MCAMhFc domains' loaded on the ForteBio sensors; also called MCAMhFc domain 1
T1 sequence: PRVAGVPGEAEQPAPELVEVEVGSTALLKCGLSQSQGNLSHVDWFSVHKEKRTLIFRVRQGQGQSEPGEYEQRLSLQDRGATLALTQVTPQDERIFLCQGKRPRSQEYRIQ
Put plainly: ForteBio Octet Red, MCAMhFc domains on anti-human IgG Fc sensors. The text has this: The following protocol was used: ForteBio anti-human IgG Fc biosensors were used to immobilize various MCAMhFc domains including full length MCAMhFc protein on to biosensor surface. […] After loading these samples into a black 96 well plate, the Octet Red was programmed as follows: 60 seconds for baseline #1; 180 seconds for loading various domains; 60 seconds for baseline #2; 180 seconds for association of antibody to domain; and 240 seconds for dissociation of antibody from domain.
Reagents and Supplies Used: [0358] 1. MCAMhFc final concentration @ 5 ug/ml [0359] […] 3. ForteBio anti-human IgG Fc Capture (AHC) biosensors for kinetics experiments, cat#18-5060 [0361] 4. Block 96 well plate from Greiner Bio-one, cat#655209 [0362] 5. ForteBio Octet Red machine [0363] 6. Fresh tissue culture medium, DMEM with 20% FCS, was used as buffer for dilution
In general terms: In BLI a coated tip is dipped into the sample, and binding shifts an interference pattern.

Test [2] has as its target T2, human MCAM L225A mutant clone on BHK-S cells (human) (UniProt P43121).
T2 sequence: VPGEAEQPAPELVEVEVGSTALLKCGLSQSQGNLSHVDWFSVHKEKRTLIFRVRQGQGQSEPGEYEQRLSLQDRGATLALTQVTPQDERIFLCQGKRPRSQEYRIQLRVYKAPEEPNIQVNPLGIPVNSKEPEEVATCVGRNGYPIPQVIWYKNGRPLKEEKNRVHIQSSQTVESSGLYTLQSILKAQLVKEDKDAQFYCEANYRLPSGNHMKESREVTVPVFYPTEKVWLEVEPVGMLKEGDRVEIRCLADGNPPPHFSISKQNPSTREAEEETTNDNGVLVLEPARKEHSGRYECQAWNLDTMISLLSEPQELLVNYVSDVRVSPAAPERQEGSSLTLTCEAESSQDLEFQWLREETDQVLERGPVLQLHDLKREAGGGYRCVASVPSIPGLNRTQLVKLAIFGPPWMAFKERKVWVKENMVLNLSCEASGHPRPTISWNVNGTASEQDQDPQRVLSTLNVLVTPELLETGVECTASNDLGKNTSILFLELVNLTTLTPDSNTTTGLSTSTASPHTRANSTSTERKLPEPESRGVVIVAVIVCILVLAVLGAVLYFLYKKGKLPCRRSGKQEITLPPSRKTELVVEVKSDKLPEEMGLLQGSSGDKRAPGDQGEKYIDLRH
Put plainly: shotgun mutagenesis, immunodetection on BHK-S cells, 0.25 ug/mL, background-subtracted and normalised to WT, triplicate.

For test [3], the target named is T3, human MCAM S238A mutant clone on BHK-S cells (human) (UniProt P43121).
T3 sequence: T2 sequence with A202L, S215A
Described as above.

In test [4] the target is T4, human MCAM V241A mutant clone on BHK-S cells (human) (UniProt P43121).
T4 sequence: T2 sequence with A202L, V218A
The description is as above.

Residue numbers refer to the chain shown, from its start.

B1: rat anti-human MCAM monoclonal antibody clone 2120.4.19 (antibody, V domains shown)
VH: QVQLKESGPGLVQPSQTLSLTCTVSGFSLTSNGVSWVRQPPGKGLEWIAAISSGGTTYYNSAFKSRLSISRNTSKSQVLLKMNSLQTEDTAMYFCARRYGYGWYFDFWGPGTMVTVSS
VL: DIRMTQSPSLLSASVGDRVTLNCKASQNIYNSLAWYQQKLGEGPKVLIPNANSLQTGIPSRFSGSGSGTDFTLTISSLQPEDFATYFCQQFYSGYTFGAGTKLELK
notes: also called m2120
For B1, in test [1], the binding result is given as “no binding (tested: 5 ug/ml)”. Besides, the mean reactivity (% of wild type MCAM) in test [2] is 23.8 % WT; in test [3], 28.9 % WT; in test [4], 24.4 % WT.
